Reference: patent US20240294611A1 (University of Texas, published 2024)

Target: SARS-CoV spike without stabilizing modifications on pseudovirus (SARS-CoV, UniProt P59594 14-1255)
Assay: cell-based or functional assay

B1: 3A3 full-length antibody (mouse variable region-human IgG1 constant region chimera) (antibody, V domains shown)
VH: QVQLQQSGAELLKPGASVKLSCTASGFNIKDTYIHWLKQRPEQGLEWIGRIGPAIGNTIYAPKFQGKATITTDTSSNTAYLQLSSLTSEDTAVYYCARYYGSSYYYFDYWGQGTTLTVSS
VL: DIVMTQSAPSVPVTPGESVSISCRSSKSLLHSNGNTYLYWFLQRPGQSPQLLIYRMSNLASGVPDRFSGSGSGTAFTLRISRVEAEDVGVYYCMQYLEYPLTFGAGTKLELKR
Pseudovirus IC50: 188 nM
